Test results taken from patent US7465537B2, “Compounds and methods for inhibiting hepatitis C virus replication” (The Board of Trustees of the University of Arkansas, priority 2005, dated 2008).
Numbering of substitutions follows the chain as printed. Numbers in names are those of the source.

B1: NS3h: wild type HCV NS3 helicase domain, expressed and purified independently of NS3 protease (protein)
chain: AVDFVPVESMETTMRSPVFTDNSSPPAVPQTFQVAHLHAPTGSGKSTKVPAAYAAQGYKVLVLNPSVAATLGFGAYMSKAHGIDPNIRTGVRTITTGAPITYSTYGKFLADGGCSGGAYDIIICDECHSTDSTTILGIGTVLDQAETAGARLVVLATATPPGSVTVPHPNIEEVALSSTGEIPFYGKAIPIETIKGGRHLIFCHSKKKCDELAAKLSGLGLNAVAYYRGLDVSVIPTSGDVIVVATDALMTGFTGDFDSVIDCNTCVTQTVDFSLDPTFTIETTTVPQDAVSRSQRRGRTGRGRMGIYRFVTPGERPSGMFDSSVLCECYDAGCAWYELTPAETSVRLRAYLNTPGLPVCQDHLEFWESVFTGLTHIDAHFLSQTKQAGDNFPYLVAYQATVCARAQAPPPSWDQMWKCLIRLKPTLHGPTPLLYRLGAVQNEVTTTHPITKYIMACMSADLEVVT
B2: NS3h KDA: purified NS3 helicase domain with D543K/H545D/Q549A mutations (protein)
chain: B1 chain with D378K, H380D, Q384A

Tests used:
[1] = tested on: HCV-Luc replicon; assay: HCV-Luc replicon luciferase assay in Huh-7 cells; type: cell-based, hepatitis C virus; settings: peptide added to Huh-7 cells containing the replicon; 48 hours
Experimental: HCV Replicon assays: Huh-7 cells were transiently transfected with replicon RNA having a firefly (P. pyralis) luciferase gene (0.2 μg/well), and with a control plasmid pRL (0.05 μg/well) having a renilla (R. reniformis) luciferase gene, using DMRIEC (Invitrogen) reagent as per the kit protocol (19). The specific additions of pmNS3, mutant replicon, pwt-NS3 etc were done concurrently. The cells were lysed after 48 hours, and luciferase activity detected using the DUAL LUCIFERASE assay kit (Promega) (24, 25).
Trans complementation assays: These assays were performed in the same manner as the regular replicon assays except that in the trans complementation assays two RNA's of different replicons (wild type and the mutant) were added along with a pRL plasmid to control for transfection efficiency.
In vivo the dominant negative mNS3 (pmNS3) down regulates the activity of the HCV-Luc replicon: Huh-7 cells were plated in a 12-well plate at 0.1 million cells per well. […]
The peptide was introduced into Huh-7 cells containing the HCV luciferase replicon. 48 hours after introduction of the peptide, luciferase activity was measured. […]

[2] = molecular target: dT15 DNA; assay: DNA binding by fluorescence polarization; settings: 37° C.
Experimental: (§1) FIGS. 10A and B. Binding of mutant NS3h to fluorescein-labeled U20 RNA (FIG. 10A) or dT15 DNA (FIG. 10B). Nucleic acid binding was determined by measuring fluorescence polarization following incubation of protein and nucleic acid at 37° C. Data were fit to a hyperbola using Kaleidagraph software.
(§2) Varying concentrations of NS3h were incubated with 500 pM 5′-fluorescein-labeled rU20 (Integrated DNA Technologies) in 50 mM MOPS-K+(pH 7.0), 10 mM NaCl, 50 μM EDTA, 0.1 mg/ml BSA for 5 minutes at 37° C. Binding was measured as a function of fluorescence polarization using a Beacon fluorescence polarization system. Data were fit to a hyperbola using Kaleidagraph software.

[3] = Coupled ATPase assay stimulated by polyU; type: biochemical; settings: saturating polyU
Experimental: FIG. 11. ATPase activity of mutant NS3h was measured as a function of NADH concentration in a coupled assay at varying concentrations of polyU. Data were fit to a hyperbola using Kaleidagraph software. […] Specific activity of NS3h DDDD (▪) was lower.
NS3h was incubated with 5 mM ATP in 50 mM HEPES (pH=7.5), 5 mM EDTA, 10 mM MgCl2, 10 mM NaCl, 0.1 mg/ml BSA, 4 mM phosphoenolpyruvate, 10 U/ml pyruvate kinase/lactate dehydrogenase, and 0.7 mg/ml NADH. Absorbance of NADH at 380 nm was measured at 1 sec intervals for a period of 30 sec in the presence of the indicated concentrations of poly-U. Hydrolysis rates were calculated using an extinction coefficient of 1,210 M^−1 cm^−1 for NADH. Data were fit to a hyperbola using Kaleidagraph software.

[4] = molecular target: fluorescein-labeled U20 RNA; assay: RNA binding assay by fluorescence polarization; settings: 37° C.
Experimental: as §1, §2

[5] = tested on: 45:30mer DNA substrate; assay: Steady state DNA unwinding assay; type: biochemical
Experimental: FIGS. 12A-C. Steady state unwinding activity of mutant versus wild type NS3h. A) The assay for measuring helicase unwinding activity is depicted. A partially duplexed substrate containing 30 bp and 15 nt of ss overhang (45:30mer) was incubated with NS3h in the presence of ATP and Mg^+2 leading to unwinding of the duplex. B) Comparison of unwinding of DNA and RNA substrates by NS3h. Otherwise identical 250 nM duplexed DNA and RNA substrates were incubated with 100 nM NS3h. Reactions were initiated by addition of 5 mM ATP and 10 mM MgCl2 and quenched by addition of 200 mM EDTA/0.7% SDS. C) Unwinding of 250 nM substrate under steady state conditions. Unwinding by 100 nM NS3h (●), NS3h KDA (∘), and NS3h DDDD (▪) occurred at rates of 5.3 nM min^−1, 5.7 nM min^−1, and 4.1 nM min^−1, respectively.
The substrate used was a 45-mer/30-mer containing 30 base pairs of double-stranded DNA with a 15 base 3′ single-stranded overhang. One strand was radiolabeled by incubation with γ-^32P-ATP and T4 polynucleotide kinase at 37° C. for 60 min. Unincorporated ATP was removed by SEPHADEX G-25 filtration. Equimolar amounts of labeled and complementary unlabeled strands were combined, heated to 95° C. for 10 min, and cooled slowly to room temperature to generate the final substrate. For steady state unwinding experiments, 100 nM NS3h was incubated with 250 nM substrate in 25 mM HEPES (pH=7.5), 0.5 mM EDTA, 10 mM MgCl2, 10 mM NaCl, 0.1 mg/ml BSA. Reactions were initiated by addition of 5 mM ATP. Aliquots were taken at specific time points and the reaction was quenched by addition of 200 mM EDTA, 0.7% SDS. Substrate and product were separated by native polyacrylamide gel electrophoresis and detected and quantified by phosphorimaging analysis.

[6] = tested on: 45:30mer DNA substrate; assay: Single turnover DNA unwinding assay (quench-flow, two-step mixing); type: biochemical; settings: for single turnover unwinding rate / amplitude for unwinding: 500 nM enzyme; for single turnover unwinding rate: 2 nM substrate, fit to equation 1; for amplitude for unwinding: single turnover
Experimental: FIG. 14. Single turnover DNA unwinding by NS3h and NS3h mutant enzymes. A two-step mixing technique was used to measure single-turnover unwinding in the presence of excess NS3h. NS3h (500 nM) or mutant enzyme was rapidly mixed with substrate followed by a 10-second incubation. A second, rapid mixing step followed in which ATP, Mg^+2, and protein trap (poly dT) was added. Data were fit according to equation 1 resulting in unwinding rates of 3.1±0.1 s^−1 and 3.7±0.1 s−1 for NS3h (●) and NS3h KDA (♦), respectively. The amplitudes for unwinding were 0.35±0.01 nM and 0.21±0.01 nM for NS3h and NS3h KDA, respectively.
Unwinding assays were carried out using a Quench-Flow apparatus (RQF-3, KinTek Instruments, Austin, Tex.) with a two-step mixing protocol (49). Reactions were carried out in 25 mM MOPS (pH 7.0), 10 mM NaCl, 0.1 mM EDTA (pH 8.0), 2 mM βME, and 0.1 mg/mL BSA at 37° C.; all concentrations are post-mixing. NS3h (500 nM) was mixed with 2 nM DNA substrate (described in steady state section) for 10 seconds before adding 5 mM ATP, 10 mM MgCl2, 60 nM annealing trap (complementary to the displaced strand), and 100 μM poly-dT protein trap. The reaction was quenched after 0.1-15 seconds by ejection into a tube containing 200 mM EDTA, 0.7% SDS. Double- and single-stranded DNA were resolved on a native 20% polyacrylamide gel. The radiolabeled substrate and product were detected using a PHOSPHORIMAGER (Molecular Dynamics, Sunnyvale, Calif.); quantitation was performed with IMAGEQUANT software. The ratio of single- to double-stranded DNA was determined and plotted as a function of time. Data were fit to Equation 1, using KALEIDAGRAPH (Synergy Software, Reading, Pa.). This equation describes a 5-step mechanism for DNA unwinding that is necessary to fit the substantial lag phase associated with unwinding of the substrate (49, 52, 53). A{1−[1+kobst+1/2 (kobst)^2+1/6 (kobst)^3+1/24(kobst)^4]e^−kobs^t} Eq. 1 Results Crystallization and Structural Analysis of NS3h Bound to (dU)16

[7] = tested on: partial duplex DNA substrate (15 nt single stranded, 30 base pairs); assay: ATP-independent DNA unwinding assay; type: biochemical; settings: 500 nM enzyme, excess over substrate, no ATP, 37° C.
Experimental: FIG. 13. Graph showing ATP-independent unwinding activity of NS3h wild-type, NS3h KDA, and NS3h DDDD. NS3h, 500 nM, was incubated with a partial duplex DNA substrate containing 15 nt of single stranded DNA and 30 base pairs at 37° C. Aliquots were quenched by addition of 100 μM poly dT and 60 nM of a 30mer oligonucleotide that served to prevent reannealing. ssDNA was separated from dsDNA by native polyacrylamide electrophoresis and the resulting fractions were quantified by using IMAGEQUANT software. DNA melting is shown for NS3h (●), NS3h KDA (♦), and NS3h DDDD (▪).
NS3h or NS3h mutant enzymes (500 nM) were mixed with 2 nM DNA substrate (described in steady state section) in 25 mM MOPS (pH 7.0), 10 mM NaCl, 0.1 mM EDTA (pH 8.0), 2 mM βME, and 0.1 mg/mL BSA at 37° C. Aliquots were transferred to a ‘quench solution’ containing 200 mM EDTA, 0.7% SDS, 5 mM ATP, 10 mM MgCl2, 60 nM annealing trap, and 100 μM poly-dT protein trap. Double- and single-stranded DNA were resolved on a native 20% polyacrylamide gel. The radiolabeled substrate and product were detected using a PHOSPHORIMAGER (Molecular Dynamics, Sunnyvale, Calif.); quantitation was performed with IMAGEQUANT software. The ratio of single- to double-stranded DNA was determined and plotted as a function of time.

[8] = 100 nM enzyme, 250 nM substrate

Molecule	luciferase activity of HCV luciferase replicon after peptide [1]	Kd [2]	ATPase specific activity [3]	Kd [4]	steady state unwinding rate [5, 8]	steady state unwinding rate ([5]; 45:30mer DNA, steady state conditions)	single turnover unwinding rate [6]	fraction of 45:30mer unwound ([6]; same substrate, same conditions for both forms (unpublished data))	amplitude for unwinding [6]	ATP-independent unwinding [7]
HIDAHFLSQTK-GGG-YARAAARQARA (HIDAHFLSQTKGGGYARAAARQARA; NS3-oligomerization inhibitor peptide with cell entry peptide) [HCV inhibitor peptide, 25 amino acid peptide: NS3 residues 541-551, three-glycine linker, peptide transduction domain …]	strongly reduced the luciferase activity	–	–	–	–	–	–	–	–	–
B1	–	5.9 ± 1.4 nM	126 s⁻¹	47 ± 5 nM	5.3 nM/min	approximately 1 nM/min	3.1 ± 0.1 s⁻¹	17%	0.35 ± 0.01 nM	much greater ATP-independent unwinding than NS3h KDA or NS3h DDDD
B2	–	2.6 ± 0.8 nM	108 s⁻¹	38 ± 4 nM	5.7 nM/min	–	3.7 ± 0.1 s⁻¹	–	0.21 ± 0.01 nM	–
